In patent US20240247080A1, “GLP1/GIP/NPY2 RECEPTOR TRIPLE AGONISTS” (Boehringer Ingelheim International GmbH, priority 2022, published 2024):
Starred links: 1 amine or outer side, 2 acyl side, 3 side chain; linkers in the order of their positions; H or OH if unused. Non-standard residues stand in square brackets, D forms with d. Groups on a side chain read outwards from the residue. No end group written: not given here. *: point of attachment. C18 diacid = O=C(O)CCCCCCCCCCCCCCCCC(=O)*; γGlu = O=C(O)[C@H](CCC(=O)[*:2])N[*:1]; εLys = N[C@@H](CCCCN[*:1])C(=O)[*:2]; AEEA = NCCOCCOCC(=O)O; Aib = CC(C)(N)C(=O)O; Ahx = NCCCCCC(=O)O

T1: human GIP receptor (human, UniProt P48546 22-466)
T1 sequence (looked up): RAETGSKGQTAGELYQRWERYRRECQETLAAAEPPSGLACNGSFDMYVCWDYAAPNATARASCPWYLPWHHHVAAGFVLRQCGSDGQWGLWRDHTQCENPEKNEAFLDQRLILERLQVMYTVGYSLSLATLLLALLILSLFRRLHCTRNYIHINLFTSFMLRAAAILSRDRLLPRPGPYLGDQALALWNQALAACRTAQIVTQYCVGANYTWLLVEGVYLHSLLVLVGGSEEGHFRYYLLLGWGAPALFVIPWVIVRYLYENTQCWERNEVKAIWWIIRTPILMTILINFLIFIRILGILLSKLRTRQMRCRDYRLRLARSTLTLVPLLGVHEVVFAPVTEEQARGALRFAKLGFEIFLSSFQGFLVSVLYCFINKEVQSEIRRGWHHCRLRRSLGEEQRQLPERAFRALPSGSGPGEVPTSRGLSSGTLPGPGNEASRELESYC

T2: human neuropeptide Y2 receptor (human, UniProt P49146 1-381)
T2 sequence (looked up): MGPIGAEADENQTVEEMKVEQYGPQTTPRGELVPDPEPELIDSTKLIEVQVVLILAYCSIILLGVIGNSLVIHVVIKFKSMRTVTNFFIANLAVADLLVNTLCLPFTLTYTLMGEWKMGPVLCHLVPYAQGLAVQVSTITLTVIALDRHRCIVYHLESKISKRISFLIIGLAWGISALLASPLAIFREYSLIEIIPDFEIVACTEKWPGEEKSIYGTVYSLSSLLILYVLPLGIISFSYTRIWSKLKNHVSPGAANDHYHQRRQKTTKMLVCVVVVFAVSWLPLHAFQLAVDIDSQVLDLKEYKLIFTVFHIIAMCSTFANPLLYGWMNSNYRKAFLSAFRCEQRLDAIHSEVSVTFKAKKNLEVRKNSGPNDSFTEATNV


Columns and labels:
Assay in all cases: cell-based or functional assay
human GLP-1 receptor = human GLP-1 receptor (human, UniProt P43220 24-463)
human GIP receptor = target: T1, human GIP receptor
[1] = target: T2, human neuropeptide Y2 receptor

Row | Binder | EC50 CreLuc hGLP1R 0.5% hP (human GLP-1 receptor) [nM] | EC50 CreLuc hGLP1R 100% hP (human GLP-1 receptor) [nM] | EC50 CreLuc hGIPR 0.5% hP (human GIP receptor) [nM] | EC50 CreLuc hGIPR 100% hP (human GIP receptor) [nM] | EC50 CreLuc hNPY2R 0.5% hP [1] [nM] | EC50 CreLuc hNPY2R 100% hP [1] [nM]
1 | YXEGTFTSDYSIXLEKAAQXAFVEWLIKGGPSSGASLRHYYNWLTRQRY (Aib at 2, 13, 20; K28 side chain: C20DA-gGlu-gGlu-gGlu-gGlu-gGlu-gGlu-eLys; C-terminal NH2) [Compound 136] | 0.32 | 4.19 | 0.31 | 2.03 | 15.1 | 64.7
2 | YXEGTFTSDYSIXLEKQAQXEFVQWLIKGGPSEGASLRHYYNWLTRQRY (Aib at 2, 13, 20; K28 side chain: C18DA-gGlu-gGlu-gGlu-gGlu-gGlu; C-terminal NH2) [Compound 141] | 0.25 | 7.93 | 0.4 | 1.32 | 11.8 | 35.2
3 | YXEGTFTSDYSIXLEKQAQXAFVEWLIKGGPSSPASLRHYYNWLTRQRY (Aib at 2, 13, 20; K28 side chain: C18DA-gGlu-gGlu-gGlu-gGlu-gGlu-OEG-OEG; C-terminal NH2) [Compound 140] | 0.12 | 3.11 | 0.22 | 1.2 | 12.4 | 45.9
4 | YXEGTFTSDYSIXLEKQAQXAFVQWLIKGGPSEPASLRHYYNWLTRQRY (Aib at 2, 13, 20; K28 side chain: C18DA-gGlu-gGlu-gGlu-gGlu-gGlu-OEG-OEG; C-terminal NH2) [Compound 142] | 0.12 | 3.34 | 0.28 | 1.15 | 12.9 | 28.2
5 | YXEGTFTSDYSIXLEKQAQXAFVEWLIKGGPSSGASLRHYYNWXTRQRY (Aib at 2, 13, 20; Tle at 44; K28 side chain: C20DA-gGlu-gGlu-gGlu-gGlu-gGlu-gGlu-eLys; C-terminal NH2) [Compound 137] | 0.12 | 2.22 | 0.28 | 1.5 | 60.2 | 93
6 | Y[Aib]EGTFTSDYSI[Aib]LEKQAQ[Aib]AFVQWLIK([AEEA-AEEA-γGlu-γGlu-γGlu-γGlu-C18 diacid])GGPEEGASLRHYYNWLTRQRY-NH2 [Compound 146] | 0.14 | 4.27 | 0.77 | 0.73 | 14 | 38.8
7 | Y[Aib]EGTFTSDYSI[Aib]LEKQAQ[Aib]AFVQWLIKGGPSSGASLRHYYNWLTRQRY-NH2 (not fully specified (residue 28)) [Compound 147] | 0.08 | 1.54 | 0.19 | 1.6 | 23.3 | 65.6
8 | Y[Aib]EGTFTSDYSI[Aib]LEKQAQ[Aib]AFVQWLIK([Ahx-γGlu-γGlu-γGlu-γGlu-γGlu-γGlu-C18 diacid])GGPSSGASLRHYYNWLTRQRY-NH2 [Compound 139] | 0.07 | 1.62 | 0.22 | 1.04 | 18.3 | 43.2
9 | Y[Aib]EGTFTSDYSI[Aib]LEKQAE[Aib]AFVQWLIK([εLys-γGlu-γGlu-γGlu-γGlu-γGlu-C18 diacid])GGPSEGASLRHYYNWLTRQRY-NH2 [Compound 138] | 0.19 | 5.09 | 0.13 | 0.81 | 18.3 | 28.4
10 | Y[Aib]EGTFTSDYSI[Aib]LEKQAQ[Aib]AFVQWLIK([εLys-γGlu-γGlu-γGlu-γGlu-γGlu-C18 diacid])GGPEEGASLRHYYNWLTRQRY-NH2 [Compound 143] | 0.13 | 4.24 | 0.22 | 0.67 | 13.1 | 42.2
11 | Y[Aib]EGTFTSDYSI[Aib]LEKQAQ[Aib]AFVQWLIK([AEEA-AEEA-γGlu-γGlu-γGlu-C18 diacid])GGPEEGASLRHYYNWLTRQRY-NH2 [Compound 144] | 0.16 | 5.59 | 1.15 | 0.79 | 15.8 | 48.7
12 | Y[Aib]EGTFTSDYSI[Aib]LEKQAQ[Aib]EFVEWLIK([AEEA-AEEA-γGlu-γGlu-γGlu-γGlu-C18 diacid])GGPSSGASLRHYYNWLTRQRY-NH2 [Compound 145] | 0.31 | 7.29 | 0.28 | 1.23 | 11.9 | 31.8

Further lines, results first:

Row | EC50 CreLuc hGLP1R 0.5% hP (human GLP-1 receptor) [nM] | EC50 CreLuc hGLP1R 100% hP (human GLP-1 receptor) [nM] | EC50 CreLuc hGIPR 0.5% hP (human GIP receptor) [nM] | EC50 CreLuc hGIPR 100% hP (human GIP receptor) [nM] | EC50 CreLuc hNPY2R 0.5% hP [1] [nM] | EC50 CreLuc hNPY2R 100% hP [1] [nM] | Binder
13 | 0.31 | 8.35 | 0.27 | 1.65 | 16.7 | 62.7 | Y[Aib]EGTFTSDYSI[Aib]LEKQAE[Aib]AFVEWLIK([AEEA-AEEA-γGlu-γGlu-γGlu-γGlu-C18 diacid])GGPSSGASLRHYYNWLTRQRY-NH2 [Compound 150]
14 | 0.15 | 4.76 | 0.58 | 0.79 | 18.6 | 40.3 | YXEGTFTSDYSIXLEKQAQXAFVQWLIKGGPEEGASLRHYYNWLTRQRY (Aib at 2, 13, 20; K28 side chain: C18DA-gGlu-gGlu-gGlu-gGlu-gGlu-gGlu-eLys; C-terminal NH2) [Compound 149]
15 | 0.25 | 6.12 | 0.22 | 1.21 | 18.9 | 58.5 | YXEGTFTSDYSIXLEKQAQXEFVQWLIKGGPSEGASLRHYYNWLTRQRY (Aib at 2, 13, 20; K28 side chain: C18DA-gGlu-gGlu-gGlu-gGlu-gGlu-gGlu-eLys; C-terminal NH2) [Compound 153]
16 | 0.13 | 4.24 | 0.4 | 0.96 | 12.6 | 39.1 | Y[Aib]EGTFTSDYSI[Aib]LEKQAQ[Aib]AFVEWLIK([εLys-γGlu-γGlu-γGlu-γGlu-γGlu-C18 diacid])GGPESGASLRHYYNWLTRQRY-NH2 [Compound 152]
17 | 0.08 | 1.46 | 0.07 | 0.47 | 11 | 21.1 | Y[Aib]EGTFTSDYSI[Aib]LEKQAQ[Aib]AFVQWLIK([εLys-γGlu-γGlu-γGlu-γGlu-γGlu-C18 diacid])GGPSEPASLRHYYNWLTRQRY-NH2 [Compound 148]
18 | 0.26 | 6.65 | 0.4 | 1.07 | 10.7 | 21.6 | Y[Aib]EGTFTSDYSI[Aib]LEKQAQ[Aib]EFVQWLIK([εLys-γGlu-γGlu-γGlu-γGlu-γGlu-C18 diacid])GGPSEGASLRHYYNWLTRQRY-NH2 [Compound 154]
19 | 0.26 | 4.39 | 0.91 | 1.28 | 18.9 | 42.3 | Y[Aib]EGTFTSDYSI[Aib]LEKQAQ[Aib]EFVQWLIK([γGlu-γGlu-γGlu-γGlu-γGlu-γGlu-C18 diacid])GGPSEGASLRHYYNWLTRQRY-NH2 [Compound 151]
20 | 0.15 | 7.18 | 0.14 | 1.43 | 17 | 95 | Y[Aib]EGTFTSDYSI[Aib]LEKQAQ[Aib]AFVQWLIK([εLys-Glu-Glu-Glu-Glu-Glu-C18 diacid])GGPEEGASLRHYYNWLTRQRY-NH2 [Compound 155]
